Measured values from patent US20040091855A1, “Method for production of antivirals by use of HIV-derived HR1 peptides, and trimers formed therefrom” (priority 2002, published 2004).

Assays:
[1] = biological target: HR2 peptide having the amino acid sequence of SEQ ID NO:33 (HIV-1); test: surface plasmon resonance (Biacore protein chip assay)
[2] = biological target: HIV-1 gp41 of strain HIV IIIB (on infectious virus) (HIV-1 strain HIVIIIB), P04578; test: cell-based or functional assay
[3] = biological target: synthetic peptide having the amino acid sequence of SEQ ID NO:36 (trimers formed therefrom) (HIV-1 (HIVIIIB)); test: fluorescence polarization competition; 50 nM trimers of SEQ ID NO:36, 0.2 nM fluorescein-labeled HR2 peptide as competitor

QARQLVSGLVQQQNNILRALEATQHAVQALVWGVKQLQARVLALERYIK (modifications not checked) [synthetic peptide having the amino acid sequence of SEQ ID NO:35]
Kd [1]: 21.8 nM | Antiviral activity against HIV IIIB, IC50 (MAGI/cMAGI infectivity assay) [2]: 0.14 µg/mL | Antiviral activity against HIV IIIB, IC90 (MAGI/cMAGI infectivity assay) [2]: 0.69 µg/mL

QARQLVSGLVQQQNNILRALEATQHLVQLLVWGVKQLQARVLALERYIK (modifications not checked) [peptide having the amino acid sequence of SEQ ID NO:41]
Antiviral activity against HIV IIIB, IC50 (MAGI/cMAGI infectivity assay) [2]: 3.89 µg/mL | Antiviral activity against HIV IIIB, IC90 (MAGI/cMAGI infectivity assay) [2]: 14.5 µg/mL

QARQLVSGLVQQQNNILRALEATQHAVQALVWGVRQLQARVLALERYIK (modifications not checked) [synthetic peptide having the amino acid sequence of SEQ ID NO:37]
Antiviral activity against HIV IIIB, IC50 (MAGI/cMAGI infectivity assay) [2]: < 0.78 µg/mL

QQQNNLLRAIEAQQHLLQLTVWGIKQLQARILAVERYLKDQ (modifications not checked) [HR1 peptide of native sequence having the amino acid sequence of SEQ ID NO:27]
Antiviral activity vs. HIV IIIB, IC50 (MAGI/cMAGI infectivity assay) [2]: 4.69 µg/mL | Antiviral activity vs. HIV IIIB, IC90 (MAGI/cMAGI infectivity assay) [2]: 23.2 µg/mL

QQQNNLLRAIEAQQHLLQLTAWGIKQLQARILAVERYLKDQ (modifications not checked) [synthetic peptide having the amino acid sequence of SEQ ID NO:29]
Antiviral activity vs. HIV IIIB, IC50 (MAGI/cMAGI infectivity assay) [2]: 2.81 µg/mL | Antiviral activity vs. HIV IIIB, IC90 (MAGI/cMAGI infectivity assay) [2]: 5.86 µg/mL

QQQNNLLRAIEAQQHLLQLTVFGIKQLQARILAVERYLKDQ (modifications not checked) [synthetic peptide having the amino acid sequence of SEQ ID NO:43]
Antiviral activity vs. HIV IIIB, IC50 (MAGI/cMAGI infectivity assay) [2]: 1.34 µg/mL | Antiviral activity vs. HIV IIIB, IC90 (MAGI/cMAGI infectivity assay) [2]: 3.81 µg/mL

WMEWDREINNYTSLIHSLIEESQNQQEKNEQELLEL (modifications not checked) [HR2 peptide having the amino acid sequence of SEQ ID NO:33]
IC50 [3]: 68 nM

B1: synthetic peptide having the amino acid sequence of SEQ ID NO:38 (peptide)
peptide: QARQLLSGIVQQQNNLLRAIEATQHAVQALVWGVKQLQARVLALERYIKDQ
modifications: not checked
Antiviral activity against HIV IIIB, IC50 (MAGI/cMAGI infectivity assay) [2]: 0.18 µg/mL | Antiviral activity against HIV IIIB, IC90 (MAGI/cMAGI infectivity assay) [2]: 0.88 µg/mL

B2: synthetic peptide having the amino acid sequence of SEQ ID NO:39 (peptide)
peptide: QARQLVSGLVQQQNNILRALEAQQHALQATVWGIKQLQARVLALERYIKDQ
modifications: not checked
Antiviral activity against HIV IIIB, IC50 (MAGI/cMAGI infectivity assay) [2]: 0.26 µg/mL | Antiviral activity against HIV IIIB, IC90 (MAGI/cMAGI infectivity assay) [2]: 1.2 µg/mL
